According to US8080531B2, “Methods for modulating checkpoint activation through TopBP1” (California Institute of Technology, priority 2006, dated 2011):

Key:
Xatr-Xatrip [1] = assay: Kinase assay of Xatr-Xatrip complexes isolated from Xenopus egg extracts; format: biochemical; details: for activation of Xatr kinase activity toward PHAS-I: isolated Xatr-Xatrip complexes, 32P-ATP, result in words
Text: Specifically, Applicants first isolated Xatr from egg extracts by pull-downs with FLAG-tagged Xenopus ATRIP (Xatrip). For these experiments, Applicants used both full-length Xatrip and an N-terminal truncation mutant (ΔN222) that supports normal Xatr-dependent activation of Xchk1 in egg extracts (Kumagai et al., 2004; Kim et al., 2005).
Applicants eluted the beads with FLAG peptide and mixed the eluates with a His6-tagged version of XtopBP1 that had been purified from baculovirus-infected insect cells (FIG. 1B). Finally, Applicants added ^32P-ATP and PHAS-I, a commonly used model substrate for ATR (Abraham, 2001).
Xatrip-FLAG and XatripΔN222-FLAG (20 ng/μl each) were incubated in interphase extracts containing anti-FLAG M2 antibody beads (Sigma) for 60 min at room temperature. The beads were isolated and washed twice with buffer A (10 mM HEPES-KOH (pH 7.5), 150 mM NaCl, 0.1% CHAPS, and 2.5 mM EGTA) and twice with HEPES-buffered saline (HBS; 10 mM HEPES-KOH (pH 7.5) and 150 mM NaCl). Xatr-Xatrip complexes were eluted in one-tenth the volume of the egg extract in HBS containing 0.1 mg/ml 3×-FLAG peptide (Sigma) for 60 min at 4° C. Eluates (2 μl) were used for kinase assays as described below.
(§1) Samples were incubated in 20 μl kinase buffer (50 mM Tris-HCl (pH 7.5), 10 mM MgCl2, 1 mM dithiothreitol, 100 μM nonradioactive ATP, and 100 μCi/ml [γ-^32P]ATP) containing 12.5 μg/ml PHAS-I or 50 μg/ml GST-Xmcm2 (62-122) for 30 min at room temperature. GST-XtopBP1 (972-1279) was added at a final concentration of 100 μg/ml unless indicated otherwise. In some cases, GST-Xmcm2 (62-122), GST-Xchk1 (306-352), or full-length Xchk1-Myc-His6 were used as substrates with only […] nonradioactive ATP. Reactions were terminated by boiling in gel sample buffer.

Xchk1 [2] = assay: Checkpoint-dependent phosphorylation of Xchk1 in XtopBP1-depleted egg extracts with aphidicolin and sperm nuclei; format: biochemical, Xenopus; details: added back to XtopBP1-depleted extract, aphidicolin
Text: Applicants proceeded to remove endogenous XtopBP1 from egg extracts by immunodepletion with anti-XtopBP1 antibodies (FIG. 7C). In parallel, Applicants used control antibodies to prepare mock-depleted extract. Next, Applicants added back wild-type His6-XtopBP1 or the His6-XtopBP1-W1138R mutant to aliquots of the XtopBP1-depleted extract. Finally, Applicants added aphidicolin and demembranated Xenopus sperm nuclei to the various extracts in order to create stalled replication forks and then examined phosphorylation of Xchk1 (FIG. 7D).
(§2) Extracts from Xenopus eggs were prepared as described (Kumagai and Dunphy, 2000). A DNA replication checkpoint response was induced by addition of 50 μg/ml aphidicolin into extracts containing demembranated sperm nuclei (3000 per μl) (Kumagai and Dunphy, 2000). To monitor DNA replication, extracts containing 1000 sperm nuclei/μl were incubated with [α-^32P]dATP (Yoo et al., 2004).
Xatr and Xatrip were immunodepleted as described (Kumagai et al., 2004). For immunodepletion of XtopBP1, we incubated 100 μl egg extract twice for 60 min with 10 μl Affiprep protein A beads (BioRad) containing 35 μg anti-XtopBP1 antibodies.

[3] = system: chromosomal DNA replication; assay: Chromosomal DNA replication in XtopBP1-depleted egg extracts; format: biochemical, Xenopus; details: XtopBP1-depleted extracts with protein added back
Experimental: In conjunction with these experiments, Applicants also examined chromosomal DNA replication in extracts containing either wild-type or W1138R His6-XtopBP1. […] Therefore, the defect in phosphorylation of Xchk1 in the extracts containing this mutant is not due to a failure in the assembly of DNA replication forks.
as §2

Xatm = assay: Kinase assay of immunoprecipitated Xatm toward PHAS-I; format: biochemical, Xenopus; details: Xatm immunoprecipitated from egg extracts
Experimental: Applicants have also shown that TopBP1 is a specific activator of ATR and not a general activator of the PIKK family. Specifically, Applicants immunoprecipitated both Xatr and Xatm in parallel from Xenopus egg extracts and then incubated the immunoprecipitates with GST-XtopBP1 (972-1279) (FIG. 3F).
as §1

Xatr-Xatrip [4] = assay: Glutathione bead pull-down of Xatr and Xatrip from egg extracts; format: binding, Xenopus
Experimental: (§3) Specifically, Applicants incubated glutathione beads containing GST-XtopBP1 (972-1279) in egg extracts, reisolated the beads, and performed immunoblotting for both Xatr and Xatrip. […] In addition, in other experiments, there was no binding of Xatr or Xatrip to beads containing GST fusions of the 1-348, 333-646, or 623-984 segments from XtopBP1 (data not shown).
(§4) Applicants also tested to see if the association of XtopBP1 with Xatr depends upon Xatrip. For this experiment, Applicants removed endogenous Xatrip from egg extracts by immunodepletion with anti-Xatrip antibodies. As described previously, this procedure leaves behind approximately 30% of the endogenous Xatr, the fraction that is not in a complex with Xatrip (Kumagai et al., 2004). Next, Applicants added GST-XtopBP1 (972-1279) to the Xatrip-depleted extracts and to mock-depleted extracts that had been prepared in parallel.

human ATR [5] = biological target: T1, human ATR (Homo sapiens, UniProt Q13535); assay: Kinase assay of recombinant human FLAG-ATR against S92 of GST-Xmcm2 (62-122); format: biochemical; details: wild-type human FLAG-ATR from U2OS nuclear extracts
T1 construct: expressed in transfected cells; host or cells: U2OS GW33 cells (doxycycline-inducible), nuclear extract, anti-FLAG purification
Experimental: (§5) Specifically, Applicants isolated wild-type and kinase-deficient versions of FLAG-tagged human ATR from nuclear extracts of U2OS cells that conditionally express these proteins (FIG. 5C). The recombinant ATR proteins were purified with anti-FLAG magnetic beads under conditions that preserve the binding of endogenous ATRIP (Ünsal-Kacmaz and Sancar, 2004). Next, Applicants incubated both the wild-type and kinase-deficient FLAG-ATR preparations in the absence or presence of GST-XtopBP1 (972-1279), and measured kinase activity against S92 of the GST-Xmcm2 (62-122) peptide.
as §1
(§6) U2OS cells conditionally expressing wild-type (GW33) or kinase-deficient (GK41) human FLAG-ATR were cultured as described (Nghiem et al., 2001). Cells were induced with 1 μg/ml doxycycline for 48 hr. Nuclear extracts were prepared as described (Dignam et al., 1983) except that nuclei were lysed by brief sonication and the concentration of NaCl in the nuclear isolation buffer was reduced to 350 mM in order to preserve the binding of endogenous ATRIP to recombinant ATR. FLAG-ATR proteins were isolated by an overnight incubation with anti-FLAG antibodies bound to protein G-magnetic beads (Dynal) and eluted with 3×-FLAG peptide.

human ATR [6] = assay: as above; format: biochemical
Experimental: as §5, §1, §6

Xchk1 [7] = assay: Ectopic phosphorylation of 35S-Xchk1 in Xenopus egg extracts without checkpoint-inducing DNA; format: biochemical; details: 35S-Xchk1, tautomycin, no checkpoint-inducing DNA template
Experimental: Because the GST-XtopBP1 (972-1279) fragment could activate Xatr in vitro without the inclusion of DNA, Applicants reasoned that ectopic addition of this fragment to Xenopus egg extracts might also be able to trigger the Xatr-dependent phosphorylation of Xchk1 even in the absence of a checkpoint-inducing DNA template.
as §2

Xatr-Xatrip [8] = biological target: Xatr-Xatrip (Xenopus laevis, UniProt Q9DE14); assay: Glutathione bead pull-down of Xatr and Xatrip from egg extracts; format: binding; parameters: incubated glutathione beads containing GST-XtopBP1 (972-1279) in egg extracts, reisolated the beads, and performed immunoblotting for both Xatr and Xatrip; Applicants removed endogenous Xatrip from egg extracts by immunodepletion with anti-Xatrip antibodies; from tissue; host or cells: Xenopus egg extract; details: Xatrip-depleted extracts
Experimental: as §3, §4

Xatr-Xatrip, sequence (Q9DE14 whole entry, the tested form may be a part): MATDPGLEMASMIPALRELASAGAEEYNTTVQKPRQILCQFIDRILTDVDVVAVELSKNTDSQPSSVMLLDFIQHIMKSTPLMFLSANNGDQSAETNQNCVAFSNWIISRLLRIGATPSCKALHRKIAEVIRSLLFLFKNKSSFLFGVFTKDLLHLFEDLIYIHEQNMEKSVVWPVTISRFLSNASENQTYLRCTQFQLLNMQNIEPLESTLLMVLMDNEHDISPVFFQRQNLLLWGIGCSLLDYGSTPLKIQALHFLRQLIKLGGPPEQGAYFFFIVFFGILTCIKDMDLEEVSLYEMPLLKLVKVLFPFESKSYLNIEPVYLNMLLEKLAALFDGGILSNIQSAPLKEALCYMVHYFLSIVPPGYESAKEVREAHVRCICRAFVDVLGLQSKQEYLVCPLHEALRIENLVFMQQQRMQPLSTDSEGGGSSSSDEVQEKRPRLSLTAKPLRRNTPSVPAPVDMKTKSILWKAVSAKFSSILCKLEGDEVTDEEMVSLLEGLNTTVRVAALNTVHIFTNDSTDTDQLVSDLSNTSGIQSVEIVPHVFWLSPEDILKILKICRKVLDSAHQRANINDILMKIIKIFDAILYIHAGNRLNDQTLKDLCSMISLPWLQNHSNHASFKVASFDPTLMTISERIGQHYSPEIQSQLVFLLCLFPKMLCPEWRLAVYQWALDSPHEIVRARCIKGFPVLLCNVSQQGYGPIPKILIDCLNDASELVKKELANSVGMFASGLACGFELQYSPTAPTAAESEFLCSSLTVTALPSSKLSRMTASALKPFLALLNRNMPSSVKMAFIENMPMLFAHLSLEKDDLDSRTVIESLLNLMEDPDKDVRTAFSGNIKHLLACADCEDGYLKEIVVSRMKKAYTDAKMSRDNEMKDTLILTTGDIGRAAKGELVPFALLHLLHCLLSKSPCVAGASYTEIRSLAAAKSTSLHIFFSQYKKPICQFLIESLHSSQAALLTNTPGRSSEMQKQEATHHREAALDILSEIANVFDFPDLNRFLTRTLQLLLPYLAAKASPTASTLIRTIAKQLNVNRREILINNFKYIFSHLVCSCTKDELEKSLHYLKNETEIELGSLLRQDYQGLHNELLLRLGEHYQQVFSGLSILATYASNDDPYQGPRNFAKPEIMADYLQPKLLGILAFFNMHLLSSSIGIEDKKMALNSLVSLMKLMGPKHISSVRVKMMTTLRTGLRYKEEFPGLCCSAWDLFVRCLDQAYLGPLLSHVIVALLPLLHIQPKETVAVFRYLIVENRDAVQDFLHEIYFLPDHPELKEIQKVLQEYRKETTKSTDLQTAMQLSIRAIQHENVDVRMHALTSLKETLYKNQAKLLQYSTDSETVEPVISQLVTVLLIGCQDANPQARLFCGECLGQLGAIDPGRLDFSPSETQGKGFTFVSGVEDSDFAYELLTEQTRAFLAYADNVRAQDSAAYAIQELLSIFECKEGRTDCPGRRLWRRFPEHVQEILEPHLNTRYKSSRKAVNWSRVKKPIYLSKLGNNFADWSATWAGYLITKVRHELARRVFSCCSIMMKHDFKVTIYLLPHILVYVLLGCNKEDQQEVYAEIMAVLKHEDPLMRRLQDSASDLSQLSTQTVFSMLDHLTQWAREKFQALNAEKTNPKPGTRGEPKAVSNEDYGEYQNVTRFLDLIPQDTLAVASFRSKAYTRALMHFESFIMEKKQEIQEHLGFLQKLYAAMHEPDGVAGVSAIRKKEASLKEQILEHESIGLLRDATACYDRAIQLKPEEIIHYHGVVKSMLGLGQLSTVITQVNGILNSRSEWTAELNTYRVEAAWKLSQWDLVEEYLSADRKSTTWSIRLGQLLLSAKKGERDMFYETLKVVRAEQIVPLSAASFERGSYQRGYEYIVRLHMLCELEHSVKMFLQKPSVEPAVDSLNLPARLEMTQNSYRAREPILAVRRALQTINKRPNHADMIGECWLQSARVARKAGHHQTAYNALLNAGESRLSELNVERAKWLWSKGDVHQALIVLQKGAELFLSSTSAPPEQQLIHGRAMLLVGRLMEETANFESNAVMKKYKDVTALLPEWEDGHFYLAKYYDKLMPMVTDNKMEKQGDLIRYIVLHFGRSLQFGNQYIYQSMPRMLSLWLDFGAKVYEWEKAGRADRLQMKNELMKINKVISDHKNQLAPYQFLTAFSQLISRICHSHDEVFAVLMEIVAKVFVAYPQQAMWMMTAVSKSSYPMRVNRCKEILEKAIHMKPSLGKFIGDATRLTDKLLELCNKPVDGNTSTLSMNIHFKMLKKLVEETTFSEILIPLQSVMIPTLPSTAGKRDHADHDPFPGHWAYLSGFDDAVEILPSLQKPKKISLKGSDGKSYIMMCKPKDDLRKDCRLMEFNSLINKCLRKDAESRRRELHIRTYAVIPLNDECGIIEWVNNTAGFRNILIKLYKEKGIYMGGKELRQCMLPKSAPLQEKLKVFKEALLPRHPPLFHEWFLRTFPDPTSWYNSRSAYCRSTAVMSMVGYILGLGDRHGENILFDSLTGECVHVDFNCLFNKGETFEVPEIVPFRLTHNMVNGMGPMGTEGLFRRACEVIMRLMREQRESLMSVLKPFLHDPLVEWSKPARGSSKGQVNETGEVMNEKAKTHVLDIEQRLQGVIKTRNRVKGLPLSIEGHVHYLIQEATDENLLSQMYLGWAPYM
Xatr-Xatrip (Xenopus laevis, UniProt Q9DE14), sequence (Q9DE14 whole entry): as the sequence (Q9DE14 whole entry, the tested form may be a part) above

Row | activation of immunoprecipitated Xatr (Xatr-Xatrip [1]; Xatr immunoprecipitated from egg extracts, PHAS-I) | phosphorylation of GST-Xchk1 (306-352) peptide and full-length Xchk1-Myc-His6 on S344 (Xatr-Xatrip [1]; substrates GST-Xchk1 (306-352) and Xchk1-Myc-His6) | activation of Xatm (Xatm) | binding of Xatr to the XtopBP1 fragment (Xatr-Xatrip [4]; Xatrip-depleted extracts plus recombinant XatripΔN222-FLAG) | binding of Xatr and Xatrip to glutathione beads (Xatr-Xatrip [4]; egg extracts, immunoblotting) | binding of Xatr to the XtopBP1 fragment (Xatr-Xatrip [4]; mock-depleted extracts) | binding of Xatr to the XtopBP1 fragment (Xatr-Xatrip [8]) | Molecule | activation of Xatr kinase activity toward PHAS-I (Xatr-Xatrip [1]) | rescue of phosphorylation of Xchk1 (Xchk1 [2]) | chromosomal DNA replication [3] | Xatr-dependent phosphorylation of GST-Xmcm2 (62-122) peptide (Xatr-Xatrip [1]; substrate GST-Xmcm2 (62-122), S92) | kinase activity of wild-type FLAG-ATR (human ATR [5]) | kinase activity in mock preparation of magnetic beads (human ATR [6]; beads lacking anti-FLAG antibodies) | activity of kinase-deficient FLAG-ATR (human ATR [6]; kinase-deficient human FLAG-ATR) | phosphorylation of Xchk1 in egg extracts (Xchk1 [7])
1 |  |  |  |  |  |  |  | His6-XtopBP1-W1138R: version of full-length His6-XtopBP1 with the W1138R mutation | unable to activate Xatr | could not restore the phosphorylation of Xchk1 | not inhibited |  |  |  |  | 
2 | strong activation | readily induced phosphorylation | no activation of Xatm | restore the binding | could clearly detect binding | good binding | no binding | GST-XtopBP1 (972-1279): GST fusion protein containing conserved region between BRCT domains VI and VII (residues 972-1279) of XtopBP1 (protein, left off: a dimerising Fc or GST, GST fusion protein containing conserved region between BRCT domains VI and VII (residues 972-1279) of XtopBP1) EQQKRVPEALYPHTYNPKMSLDISAVQDGSYTASKFSADTSLQQDENSELQLQQNNKFGETSDDQVKKAAGDGNPQNPSKDVKGALTQTLEMRENFQRQLQEFMSATSVVKPRGSVGRAGFDNSPCTPEGARSTRNGRSRVLEALRQSRQAMTDLNTEPSQNEQIIWDDPTAREERAKLVSNLQWPDSPSQYSEQLQHNMNDAGGNYTPAKESLTDSEIAELEACEFEPKSAMRTPVIENNLQSPTKPDHLTPTPQAPSIAFPLANPPVAPQPREKPVQPFSKEETLKERRFQLSSLDPQERIDYSQL | induced activation of Xatr as effectively as full-length XtopBP1 |  |  | induced a strong Xatr-dependent phosphorylation | large increase | did not induce any kinase activity | neither the intact nor W1138R mutant form of GST-XtopBP1 (972-1279) had any effect | very robust phosphorylation
